Measurements: patent US8198236B2, “Methods and compositions for the treatment of cancer” (Washington University, priority 2007, dated 2012)

Experiments:
cytosolic β-catenin = experiment: Cytosolic β-catenin level by western blotting in LRP6-transduced HT1080 cells; type: cell-based, human; details: 0.5 to 5 nM Mesd, 2 hours at 37° C.
Experimental: […] After washing in ice-cold PBS, cells were collected and homogenized in a glass Dounce homogenizer in buffer consisting of 100 mM Tris-HCl pH 7.4, 140 mM NaCl, 2 mM DTT, 2 mM PMSF, and 1× Complete™ protease inhibitors (500 μl/well). The homogenate was centrifuged for 10 minutes at 500 g, and the supernatant was further centrifuged at 100,000 g at 4° C. for 90 minutes. The resulting supernatant was designated the cytosolic fraction. The β-catenin levels were then examined by western blotting using β-catenin-specific antibody from Cell Signaling Technology. The immunoreactive proteins were detected using the ECL™ system (Amersham). Films showing immunoreactive bands were scanned with a Kodak Digital Science DC 120 Zoom Digital Camera and band intensities were analyzed with Kodak Digital Science1D Image Analysis Software.
β-catenin is a key molecule in the Wnt/β-catenin signaling pathway. A cytosolic pool of β-catenin interacts with DNA-binding proteins and participates in Wnt signal transduction (Hinck, L., J. Cell Biol. 125: 1327-1340, 1994; Gottardi, C. J., J. Cell Biol. 153: 1049-1060, 2001; Klingelhofer, J., et al., Oncogene 22: 1181-1188, 2003). To determine whether Mesd binding to cell surface LRP6 directly regulates Wnt signaling, we studied the effects of Mesd binding on cytosolic β-catenin levels in HT1080-LRP6 cells. […]

LRP6 = biological target: T1, LRP6 (Homo sapiens, UniProt O75581); experiment: LRP6-mediated 125I-DKK1 degradation in LRP6-transduced HT1080 cells; type: cell-based; details: 500 nM unlabeled, 4 hours at 37° C.
T1 construct: expressed in transfected cells; host or cells: human HT1080 cells, retroviral vector pLNCX2
Experimental: Ligand degradation was performed using the methods as described in Li, Y., et al., J. Biol. Chem. 275: 17187-17194, 2000. Briefly, 2×10^5 cells were seeded into 12-well dishes 1 day prior to assay. Pre-warmed assay buffer (minimal Eagle's medium containing 0.6% BSA with radioligand, 0.6 ml/well) was added to cell monolayers in the absence or the presence of unlabeled 500 nM RAP or 500 nM Mesd, followed by incubation for 4 hours at 37° C. Thereafter, the medium overlying the cell monolayers was removed and proteins were precipitated by addition of BSA to 10 mg/ml and trichloroacetic acid to 20%. […] After each time point, the plates were quickly placed on ice and the assay buffer was replaced with cold stop/strip solution. ^125I-anti-HA IgG that remained on the cell surface was stripped by incubation of cell monolayers with cold stop/strip solution for a total of 20 minutes (0.75 ml for 10 minutes, twice) and counted. Cell monolayers were then solubilized with low-SDS lysis buffer and counted. […] The fraction of internalized ^125I-anti-HA IgG after each time point was calculated and plotted.
RAP is a receptor antagonist for members of the LDLR family, and is able to inhibit the binding of most known ligands of the LDLR family members. […] Cell-surface-bound Myc-tagged DKK proteins were fixed and detected by immunofluorescence staining with anti-Myc antibody. […]

[1] = Pharmacokinetics of 125I-labeled Mesd or Mesd peptide, intravenous or subcutaneous
Experimental: In experiments shown in FIG. 23, pharmacokinetics of Mesd peptide and Mesd were examined. FIG. 23A: Amount of Mesd in serum following a single dose of protein administration. Mice were dosed at 5, 10, 20 mg/kg of Mesd via i.p. and the serum samples were collected from individual mice at the indicated time points. The levels of Mesd in serum were quantified by comparison to Mesd pure protein with known concentrations in Western blot analysis. Values are the average of triple determinations with S.D. indicated by error bars. […] Samples were obtained by terminal bleed under anesthesia at each of the indicated time points (N=3 animals per time point). Radioactivity was measured using a gamma counter and DPM converted to mass units/mL blood using the specific activity (DPM/mass) of each test substance. Data are plotted as mass U/mL of test substance with standard deviation indicated by error bars.

T1 sequence (O75581 20-1613): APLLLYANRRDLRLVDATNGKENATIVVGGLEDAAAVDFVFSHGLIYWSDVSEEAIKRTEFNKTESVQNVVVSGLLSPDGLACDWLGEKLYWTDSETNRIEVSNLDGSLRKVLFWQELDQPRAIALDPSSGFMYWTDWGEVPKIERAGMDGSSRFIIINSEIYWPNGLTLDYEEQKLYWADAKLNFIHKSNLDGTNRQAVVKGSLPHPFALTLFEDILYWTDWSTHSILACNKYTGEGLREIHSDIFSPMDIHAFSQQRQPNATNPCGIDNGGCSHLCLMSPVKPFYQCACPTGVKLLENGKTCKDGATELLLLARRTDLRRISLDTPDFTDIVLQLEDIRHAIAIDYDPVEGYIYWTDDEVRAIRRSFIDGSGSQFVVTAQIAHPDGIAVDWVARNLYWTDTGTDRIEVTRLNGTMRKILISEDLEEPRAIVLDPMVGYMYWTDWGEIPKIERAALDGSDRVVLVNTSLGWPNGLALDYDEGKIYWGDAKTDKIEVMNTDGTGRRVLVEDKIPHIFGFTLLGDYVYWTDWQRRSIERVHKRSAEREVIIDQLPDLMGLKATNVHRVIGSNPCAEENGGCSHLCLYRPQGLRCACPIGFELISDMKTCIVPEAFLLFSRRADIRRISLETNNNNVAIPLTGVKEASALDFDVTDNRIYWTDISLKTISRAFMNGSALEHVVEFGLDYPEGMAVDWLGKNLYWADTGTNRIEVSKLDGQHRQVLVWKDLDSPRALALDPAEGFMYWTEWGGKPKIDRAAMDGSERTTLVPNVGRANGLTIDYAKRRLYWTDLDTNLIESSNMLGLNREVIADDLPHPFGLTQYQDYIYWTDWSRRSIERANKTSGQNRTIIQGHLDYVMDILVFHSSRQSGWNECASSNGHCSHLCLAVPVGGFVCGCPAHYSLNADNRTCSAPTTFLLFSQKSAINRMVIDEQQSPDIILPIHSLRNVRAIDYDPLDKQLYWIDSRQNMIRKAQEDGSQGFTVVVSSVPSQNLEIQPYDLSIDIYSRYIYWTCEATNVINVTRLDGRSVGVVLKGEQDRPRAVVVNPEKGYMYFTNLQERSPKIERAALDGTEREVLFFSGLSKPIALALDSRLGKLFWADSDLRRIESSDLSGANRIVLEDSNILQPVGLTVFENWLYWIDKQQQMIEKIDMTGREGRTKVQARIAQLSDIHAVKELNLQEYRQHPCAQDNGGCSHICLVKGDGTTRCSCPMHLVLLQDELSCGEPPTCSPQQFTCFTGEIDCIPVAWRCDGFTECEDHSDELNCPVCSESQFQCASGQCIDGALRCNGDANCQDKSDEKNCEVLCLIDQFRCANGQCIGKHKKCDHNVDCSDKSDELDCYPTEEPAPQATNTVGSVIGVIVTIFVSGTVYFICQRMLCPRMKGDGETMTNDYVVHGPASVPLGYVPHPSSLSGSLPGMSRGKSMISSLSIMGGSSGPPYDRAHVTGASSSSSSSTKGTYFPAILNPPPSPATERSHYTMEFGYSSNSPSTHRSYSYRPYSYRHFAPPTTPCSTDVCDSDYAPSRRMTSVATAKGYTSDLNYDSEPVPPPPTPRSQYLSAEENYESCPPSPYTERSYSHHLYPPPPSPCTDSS

B1: Mesd: Recombinant full-length mouse Mesd expressed in E. coli, N-terminal polyhistidine tail, lacking the signal peptide (protein)
chain: ADTPGEATPPPRKKKDIRDYNDADMARLLEQWEKDDDIEEGDLPEHKRPSAPIDFSKLDPGKPESILKMTKKGKTLMMFVTVSGNPTEKETEEITSLWQGSLFNANYDVQRFIVGSDRAIFMLRDGSYAWEIKDFLVSQDRCAEVTLEGQMYPGKGGGSKEKNKTKPEKAKKKEGDRKPRASKEDNRAGSRREDL
modifications: left off: small tags and cut ends
notes: Recombinant full-length mouse Mesd expressed in E. coli, N-terminal polyhistidine tail, lacking the signal peptide
For B1, the “Change in cytosolic β-catenin levels” value (cytosolic β-catenin) was “no significant change”, the “Effect on increased 125I-DKK1 degradation of LRP6-expressing HT1080 cells” value (LRP6) was “abolished” and the Bioavailability ([1]; intravenous (tail vein) or subcutaneous) was 60%. For the same molecule, the Distribution into tissues ([1]; thyroid/parathyroid, liver, kidney, stomach, gastrointestinal tract) was “rapid and widespread”.
